The source of these data is article PMC4666130 (Molecular Biology of the Cell, 2015).

In this assay the target is T1, claudin-19 (human CLDN19), expressed in HEK293 cells (human, UniProt Q8N6F1 1-224).
T1 sequence (looked up): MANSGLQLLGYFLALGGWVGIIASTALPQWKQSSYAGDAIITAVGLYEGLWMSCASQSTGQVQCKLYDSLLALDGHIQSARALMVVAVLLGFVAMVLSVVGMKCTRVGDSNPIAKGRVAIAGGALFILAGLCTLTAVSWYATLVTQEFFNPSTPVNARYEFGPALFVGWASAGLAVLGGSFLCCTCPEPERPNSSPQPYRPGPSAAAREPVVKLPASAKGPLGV
Put plainly: cross-linking.

B1: claudin-16 (human CLDN16), expressed in HEK293 cells (natural protein, UniProt Q9Y5I7 1-235, looked up)
chain: MRDLLQYIACFFAFFSAGFLIVATWTDCWMVNADDSLEVSTKCRGLWWECVTNAFDGIRTCDEYDSILAEHPLKLVVTRALMITADILAGFGFLTLLLGLDCVKFLPDEPYIKVRICFVAGATLLIAGTPGIIGSVWYAVDVYVERSTLVLHNIFLGIQYKFGWSCWLGMAGSLGCFLAGAVLTCCLYLFKDVGPERNYPYSLRKAYSAAGVSMAKSYSAPRTETAKMYAVDTRV
As for B1, the “stoichiometry N” value is 1 claudin-16 per claudin-19.

As usually defined, the stoichiometry N is the number of molecules, sites or subunits per partner or assembly.
